Measurements reported in the RNAGym collection of RNA variant scans (doi:10.7554/elife.80360).

B1: Hairpin Ribozyme (parent)
chain: GUCCUCUUUCACGUGCGCGUGAAAGAGAGAAGUGAACCAGAGAAACACACGUUGUGGUAUAUUACCUGGUA

Variants of: B1
Experiment: self-cleavage, relative activity (ratio to wild type); higher = more cleavage; co-transcriptional

Variant	self-cleavage
C38A U55G	0.183
C38A U55A	0.133
C38G C50U	0.0995
C38A G57U	0.0968
C38A G57A	0.0809
C38A G57C	0.157
A35U G40A	0.154
A35U G40C	0.185
A36C G40A	0.162
A36C C46A	0.026
C38A U52C	0.193
C38A U52G	0.0831
C38A U52A	0.41
A35U C46U	0.143
A35U C46A	0.16
C37G C38A	0.152
C37G C38G	0.0384
A36U C50A	0.242
C38G A47G	0.116
C38G A47C	0.128
C38U C48A	0.142
A35U G56A	0.143
A35U G56U	0.221
A36U C37A	0.184

Variant	self-cleavage
A36U C37U	0.21
C37A A61U	0.142
C37A A61C	0.136
A36C C48U	0.0598
A36G G42C	0.347
A36U A44U	0.285
C38G U62G	0.0875
C38U A39C	0.152
C37A U60G	0.171
C38G A39U	0.209
C37U G40C	0.172
A36U G40U	0.126
A36U G40C	0.101
C38A U53G	0.0628
A36G A71U	1.04
C37A A45C	0.189
A35U C66A	0.154
C37G C50A	0.14
C37G C50U	0.214
C37U G51U	0.81
A36G U53C	1.08
C38G A71C	0.272
C37U C48U	0.144
C37U C38A	0.145

Variant	self-cleavage
A36G U67G	0.19
C37G A64G	0.15
C37G U60A	0.197
C37G U60G	0.245
A36G A44U	0.0711
A36C G42U	0.116
A36C G42A	0.0682
C37A A71G	0.323
C38U	0.497
C38G	0.181
C38A	0.171
C38G U70A	0.144
A36G A45C	0.189
C37G C48G	0.0962
C38G A61C	0.133
C37U G57C	0.156
C37U G57U	0.221
A36C A41C	0.401
A36C A41U	0.92
C37G G40C	0.13
A35U A71G	0.962
A35U A71U	0.978
A36U C48U	0.0683
A35U U55G	0.281

Variant	self-cleavage
A35U U55C	0.274
C38G U67G	0.124
A36G A43G	0.0267
A35U U62C	0.0853
A35U U62G	0
C37U A39C	0.0611
C38U A71G	0.681
A36C A71U	0.654
A36C A71C	0.975
C38A U70A	0.165
C38G C48U	0.108
C38G C48G	0.071
A36C A45C	0.236
C37G U55G	0.119
A36U G51C	0.446
C38A U63C	0.0636
C37A G51U	0.563
C38G G42A	0.103
C38G U52A	0.169
C38G U52G	0.0784
C38G U52C	0.224
A36G A47G	0.106
C37U U53A	0.775
C37U U53G	0.364

Variant	self-cleavage
C37G A59C	0.0453
C37G A59G	0.0514
C38G C46G	0.161
A36U C65A	0.502
A36G A49G	0.339
A36G C65G	0.138
A36G C65U	0.267
C37G G69U	0.644
C38A A43C	0.0755
C38A A43G	0.0867
A36C G51A	0.799
C38U C65G	0.164
A36G A41C	1.1
A36C C66A	0.268
A36G C37A	0.297
A36G G57C	0.124
A36G G57A	0.148
A36C U67G	0.175
A36C U67C	0.102
A36C U67A	0.174
A36U A59G	0.19
C37G A49U	0.153
C37G G42A	0.117
A36G C48A	0.196

Variant	self-cleavage
A36G C48U	0.228
C38G A45U	0.156
C38U C46G	0.123
A35U G69C	0.368
C37A A64U	0.392
A35U C50U	0.18
C37A G40U	0.129
C37A G40A	0.174
C37A G40C	0.158
C37A C38U	0.0834
C37A C38A	0.144
C38U G40C	0.118
C38U G42C	0.177
C37A A49U	0.0951
A36C C65U	0.118
A36C A64U	0.309
C38G C66A	0.151
C38G C66G	0.0755
C38G C66U	0.21
A35U G57U	0.311
A35U G57C	0.116
C37G U58C	0.335
C37G U58A	0.202
A36U A41U	0.868

Variant	self-cleavage
C38G A41C	0.264
C38G A41G	0.618
A36C U58G	0.595
A36G G51A	0.943
C37G C46G	0.211
C37G C46U	0.122
C37G C46A	0.174
C38G G68A	0.247
A36C G54C	0.327
A36C G54A	0.467
A36C G54U	0.33
C38G U55C	0.0193
C37G A61U	0.155
C37G A45G	0.103
C37G A45U	0.188
A36C U60C	0.794
A36C U60G	0.361
C38G A44U	0.207
C37U G54A	0.397
C37U G54U	0.443
C37U U70G	0.505
C38G U53A	0.185
C38A A47G	0.106
